Results on one molecule are retold here after US10519238 (dated 2019).

Test [1] has as its target T1, recombinant murine galectin-1 (R&D Systems) (UniProt P16045 2-135).
T1 chain: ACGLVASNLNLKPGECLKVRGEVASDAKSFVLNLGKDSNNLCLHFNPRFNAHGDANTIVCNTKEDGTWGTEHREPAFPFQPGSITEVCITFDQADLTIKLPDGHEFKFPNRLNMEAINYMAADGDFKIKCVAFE
As to the kind of experiment: SPR (BIAcore). (In general: Surface plasmon resonance follows binding to a sensor surface in real time, without labels.)

In test [2] the target is recombinant human galectin-1 (R&D Systems) (UniProt P09382 2-135). As to the kind of experiment: SPR (BIAcore).
recombinant human galectin-1 (R&D Systems), sequence (P09382 2-135): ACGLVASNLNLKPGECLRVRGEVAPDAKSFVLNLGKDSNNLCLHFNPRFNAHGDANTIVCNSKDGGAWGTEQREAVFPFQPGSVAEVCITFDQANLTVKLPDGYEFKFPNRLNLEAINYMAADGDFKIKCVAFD

B1: anti-Gal1 monoclonal antibody 8A12.H9.H10 (antibody, V domains shown)
VH: QAYLQQSGAELVRPGASVRMSCKASGYTFTRYNMHWVKQTPRQGLEWIGRIYPGNGDTSYNQKFKGKATLTVDKSSSTAYMQLSSLTSEDSAVYFCTVWDYWGQGTTLTVSS
VL: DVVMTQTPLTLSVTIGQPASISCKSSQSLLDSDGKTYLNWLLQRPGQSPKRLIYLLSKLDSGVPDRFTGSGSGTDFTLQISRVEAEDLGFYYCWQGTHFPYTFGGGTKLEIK
The term Kd denotes the equilibrium constant for the complex coming apart. For B1, the dissociation constant (Kd) in test [1] was 26.6 nM; in test [2], 71 nM.
